Measurements: patent publication US20140186354A1 (published 2014)

B1: Recombinant Human Heregulin fragment (HRG) (ligand)
chain: GPGSSGKKPESAAGSQSPALPPQLKEMKSQESAAGSKLVLRCETSSEYSSLRFKWFKNGNELNRKNKPQNIKIQKKPGKSELRINKASLADSGEYMCKVISKLGNDSASANITIVESNEIITGMPASTEGAYVSSESPIRISVSTEGANTSSSTSTSTTGTSHLVKCAEKEKTFCVNGGECFMVKDLSNPSRYLCKCPNEFTGDRCQNYVMASFYKHLGIEFMEAEELYQK
notes: also called Heregulin beta (HRG)
B2: anti-HER3/HER4 antibody M-05-74 (antibody, V domains shown)
VH: QVQLQQSGAELAKPGASVKMSCKTSGYTLTDYWIHWVKQRPGQGLEWIGYINPYTGYTESNQKFKDKATLTADKSSNTAYIQLSSLTSEDSAVYYCARPYYYGDYWGQGTTLTVSS
VL: QIVLTQSPAIMSASPGERVTITCSASSSVSYMHWFQQKPGTSPKLLIYSTSNLASGVPARFSGSGSGTSYSLTISRMEAEDAATYYCQQRSSYPFTFGSGTKLEIK
notes: Murine monoclonal antibody from hybridoma (supernatant or purified full length); also called M-074; M-5-74

Columns and labels:
[1] = target: T1, human recombinant HER4 ECD (human, UniProt Q15303 26-651); assay: complex formed in solution before SPR
T1 sequence: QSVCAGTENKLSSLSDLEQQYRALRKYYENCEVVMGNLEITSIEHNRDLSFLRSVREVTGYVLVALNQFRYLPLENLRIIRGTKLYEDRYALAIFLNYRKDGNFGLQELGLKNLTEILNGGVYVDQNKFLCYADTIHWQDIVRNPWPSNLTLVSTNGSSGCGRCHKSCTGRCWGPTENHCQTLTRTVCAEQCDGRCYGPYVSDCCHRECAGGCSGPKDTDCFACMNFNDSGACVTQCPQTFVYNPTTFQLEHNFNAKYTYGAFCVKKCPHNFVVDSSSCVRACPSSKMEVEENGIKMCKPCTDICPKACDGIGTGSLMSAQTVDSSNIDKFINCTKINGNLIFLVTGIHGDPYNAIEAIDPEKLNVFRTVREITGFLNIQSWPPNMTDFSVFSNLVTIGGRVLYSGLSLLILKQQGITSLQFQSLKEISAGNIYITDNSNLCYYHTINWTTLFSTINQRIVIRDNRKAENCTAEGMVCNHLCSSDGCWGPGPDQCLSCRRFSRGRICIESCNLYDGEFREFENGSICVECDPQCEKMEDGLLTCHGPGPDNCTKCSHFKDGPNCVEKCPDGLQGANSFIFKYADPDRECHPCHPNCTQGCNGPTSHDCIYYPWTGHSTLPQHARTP

[2] = target: T2, human recombinant HER3 ECD (human, UniProt P21860 20-643); assay: complex formed in solution before SPR
T2 construct: 68 kDa; without ligand said to be in the closed conformation; also called human-Her3-ECD

HER4 ECD-HRG complex = target: T3, HER4 ECD-HRG complex (human, UniProt Q15303 26-651); assay: SPR Biacore T100
T3 construct: HER4 ECD pre-incubated with a 5-fold molar excess of Heregulin; also called Her-4 ECD/Heregulin complex
T3 sequence 1: T1 sequence
T3 sequence 2: B1 chain

HER3 ECD-HRG complex = target: T4, HER3 ECD-HRG complex (human, UniProt P21860 20-643); assay: SPR Biacore T100
T4 construct: HER3 ECD pre-incubated with a 5-fold molar excess of Heregulin (open conformation); also called Her-3 ECD/Heregulin complex
T4 sequence (P21860 20-643 limits assumed, one chain of several): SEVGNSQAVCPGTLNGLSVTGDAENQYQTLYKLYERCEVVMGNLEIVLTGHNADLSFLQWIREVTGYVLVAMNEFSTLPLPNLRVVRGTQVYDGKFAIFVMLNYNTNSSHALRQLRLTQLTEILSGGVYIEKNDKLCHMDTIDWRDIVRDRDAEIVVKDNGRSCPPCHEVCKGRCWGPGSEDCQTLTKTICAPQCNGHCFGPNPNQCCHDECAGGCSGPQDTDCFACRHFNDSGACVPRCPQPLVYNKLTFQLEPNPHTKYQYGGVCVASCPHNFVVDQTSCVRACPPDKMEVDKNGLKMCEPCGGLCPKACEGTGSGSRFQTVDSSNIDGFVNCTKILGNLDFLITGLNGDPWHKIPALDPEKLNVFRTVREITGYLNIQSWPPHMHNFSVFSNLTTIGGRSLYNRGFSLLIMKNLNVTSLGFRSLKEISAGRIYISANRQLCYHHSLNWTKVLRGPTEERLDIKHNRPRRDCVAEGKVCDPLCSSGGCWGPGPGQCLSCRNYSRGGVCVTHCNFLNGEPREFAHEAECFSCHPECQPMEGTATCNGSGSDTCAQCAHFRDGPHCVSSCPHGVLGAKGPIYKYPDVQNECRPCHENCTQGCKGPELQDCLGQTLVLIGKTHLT

T2 sequence (P21860 20-643): as the sequence (P21860 20-643 limits assumed, one chain of several) above

Binder | binding result [1] | binding result [2] | ratio Ka(+Heregulin)/Ka(-Heregulin), against HER4-ECD (HER4 ECD-HRG complex) | ratio MR(+Heregulin)/MR(-Heregulin), against HER4-ECD (HER4 ECD-HRG complex) | ratio Ka(+Heregulin)/Ka(-Heregulin), against HER3-ECD (HER3 ECD-HRG complex) | ratio MR(+Heregulin)/MR(-Heregulin), against HER3-ECD (HER3 ECD-HRG complex)
B1 | binds | binds | – | – | – | –
B2 | – | – | 23.9 | 6 | 4.85 | 3
